Measurements as given in patent publication US20230129812A1 (ACCELERON PHARMA, published 2023).
Where a chain is given by its changes, count along the chain named. Names may count otherwise. Blank lines part the entries; values can stand above or below the binder they belong to.

Key:
[1] = target: T1, GDF11 (UniProt O95390 299-407); test: SPR (Biacore); ligand coupled, receptor flowed over (as reported in WO2006/012627)
T1 construct: also called BMP11
T1 sequence (looked up): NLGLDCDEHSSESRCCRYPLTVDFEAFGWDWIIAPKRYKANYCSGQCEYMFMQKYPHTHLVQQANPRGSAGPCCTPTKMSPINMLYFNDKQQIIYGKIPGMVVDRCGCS
Description: (§1) Other variants have been generated and tested, as reported in WO2006/012627 (incorporated herein by reference in its entirety). See, e.g., pp. 59-60, using ligands coupled to the device and flowing receptor over the coupled ligands. […] Table 11 showing data with respect to these variants is reproduced below: […]

[2] = target: T2, activin A (UniProt P08476 311-426); test: SPR (Biacore); ligand coupled, receptor flowed over (as reported in WO2006/012627); - means ~1/2 WT binding
T2 construct: also called ActA
T2 sequence (looked up): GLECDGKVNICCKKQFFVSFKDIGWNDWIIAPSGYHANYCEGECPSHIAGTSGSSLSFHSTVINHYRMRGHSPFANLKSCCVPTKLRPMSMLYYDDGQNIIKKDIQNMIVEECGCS
Description: as §1

[3] = target: T2, activin A; test: SPR (Biacore); ligand coupled, receptor flowed over (as reported in WO2006/012627)
Description: as §1

[4] = target: T1, GDF11; test: SPR (Biacore); ligand coupled, receptor flowed over (as reported in WO2006/012627); -- means <1/5 WT binding
Description: as §1

[5] = target: T1, GDF11; test: SPR (Biacore); ligand coupled, receptor flowed over (as reported in WO2006/012627); - means ~1/2 WT binding
Description: as §1

[6] = target: T1, GDF11; test: SPR (Biacore); receptor-Fc captured by anti-Fc antibody, ligand injected
Protocol: (§2) A Biacore™-based binding assay was used to compare ligand binding selectivity of the ALK4-Fc:ActRIIB-Fc heterodimeric complex described above with that of ActRIIB-Fc and ALK4-Fc homodimer complexes. The ALK4-Fc:ActRIeB-Fc heterodimer, […], and ALK4-Fc homodimer were independently captured onto the system using an anti-Fc antibody. Ligands were injected and allowed to flow over the captured receptor protein. Results are summarized in Table 13 below, in which ligand off-rates (kd) most indicative of effective polypeptides are denoted in bold.

[7] = target: T3, BMP6 (UniProt P22004 375-513, limits assumed); test: as above
T3 sequence (looked up): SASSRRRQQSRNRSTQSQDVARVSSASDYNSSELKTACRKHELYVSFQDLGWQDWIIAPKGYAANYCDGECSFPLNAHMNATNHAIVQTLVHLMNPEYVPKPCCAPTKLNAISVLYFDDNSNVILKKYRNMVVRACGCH
Protocol: as §2

[8] = target: T4, activin B (UniProt P09529 293-407); test: as above
T4 sequence (looked up): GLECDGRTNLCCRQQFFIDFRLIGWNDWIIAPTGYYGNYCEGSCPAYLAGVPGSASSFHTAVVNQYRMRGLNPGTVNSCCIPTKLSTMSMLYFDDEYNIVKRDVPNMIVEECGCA
Protocol: as §2

[9] = target: T5, BMP10 (UniProt O95393 317-424); test: as above
T5 sequence (looked up): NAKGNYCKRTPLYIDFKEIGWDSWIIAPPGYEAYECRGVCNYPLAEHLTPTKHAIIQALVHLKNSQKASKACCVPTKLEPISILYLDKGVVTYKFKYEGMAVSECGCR
Protocol: as §2

[10] = target: T6, BMP9 (UniProt Q9UK05 320-429); test: as above
T6 construct: also called GDF2
T6 sequence (looked up): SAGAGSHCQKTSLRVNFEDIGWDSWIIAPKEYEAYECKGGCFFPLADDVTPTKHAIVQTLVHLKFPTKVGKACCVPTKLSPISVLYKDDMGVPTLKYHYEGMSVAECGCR
Protocol: as §2

[11] = target: T7, GDF3 (UniProt Q9NR23 251-364); test: as above
T7 construct: also called VGR2
T7 sequence (looked up): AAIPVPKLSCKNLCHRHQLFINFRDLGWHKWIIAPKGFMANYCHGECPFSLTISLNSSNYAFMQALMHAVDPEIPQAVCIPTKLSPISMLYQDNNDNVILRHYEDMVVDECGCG
Protocol: as §2

[12] = target: T8, GDF8 (UniProt O14793 267-375); test: as above
T8 construct: also called myostatin
T8 sequence (looked up): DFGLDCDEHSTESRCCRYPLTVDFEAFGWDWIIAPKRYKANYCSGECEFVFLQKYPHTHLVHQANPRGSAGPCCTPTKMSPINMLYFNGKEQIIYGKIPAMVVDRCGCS
Protocol: as §2

[13] = target: T2, activin A; test: as above
Protocol: as §2

[14] = target: T1, GDF11; test: SPR (Biacore); receptor-Fc captured by anti-hFc antibody, ligand injected
Protocol: (§3) Binding of certain ActRIIB-Fc proteins and ActRIIB variant Fc fusion polypeptides to ligands was tested in a Biacore™ assay.
(§4) The ActRIIB-Fc variants or wild-type protein were captured onto the system using an anti-hFc antibody. Ligands were injected and flowed over the captured receptor proteins.

[15] = target: T8, GDF8; test: as above
Protocol: as §3, §4

[16] = target: T2, activin A; test: as above
Protocol: as §3, §4

B8: ActRIIB-Fc homodimer (Fc fusion)
chain: GRGEAETRECIYYNANWELERTNQSGLERCEGEQDKRLHCYASWRNSSGTIELVKKGCWLDDFNCYDRQECVATEENPQVYFCCCEGNFCNERFTHLPEAGGPEVTYEPPPTAPTGGGTHTCPPCPAPELLGGPSVFLFPPKPKDTLMISRTPEVTCVVVDVSHEDPEVKFNWYVDGVEVHNAKTKPREEQYNSTYRVVSVLTVLHQDWLNGKEYKCKVSNKALPVPIEKTISKAKGQPREPQVYTLPPSREEMTKNQVSLTCLVKGFYPSDIAVEWESNGQPENNYKTTPPVLDSDGSFFLYSKLTVDKSRWQQGNVFSCSVMHEALHNHYTQKSLSLSPGK
notes: also called ActRIIB-Fc:ActRIIB-Fc homodimer
Kd [6]: 0.002 nM
koff [6]: 0.00011 s⁻¹
kon [6]: 5e+07 M⁻¹ s⁻¹
Kd [7]: 0.19 nM
koff [7]: 0.0068 s⁻¹
kon [7]: 3.2e+07 M⁻¹ s⁻¹
Kd [8]: 0.02 nM
koff [8]: 0.0001 s⁻¹
kon [8]: 5.1e+06 M⁻¹ s⁻¹
Kd [9]: 0.011 nM
koff [9]: 0.00026 s⁻¹
kon [9]: 2.3e+07 M⁻¹ s⁻¹
Kd [10]: 0.077 nM
koff [10]: 0.0011 s⁻¹
kon [10]: 1.4e+07 M⁻¹ s⁻¹
Kd [11]: 1.5 nM
koff [11]: 0.0022 s⁻¹
kon [11]: 1.4e+06 M⁻¹ s⁻¹
Kd [12]: 0.28 nM
koff [12]: 0.00023 s⁻¹
kon [12]: 830000 M⁻¹ s⁻¹
Kd [13]: 0.019 nM
koff [13]: 0.00023 s⁻¹
kon [13]: 1.2e+07 M⁻¹ s⁻¹

B9: ActRIIB(20-134)-hFc (Fc fusion)
chain: B8 chain
notes: also called ActRIIB-hFc
Kd [14]: 0.0842 nM
koff [14]: 0.000113 s⁻¹
kon [14]: 1.34e+06 M⁻¹ s⁻¹
Kd [15]: 0.0935 nM
koff [15]: 3.45e-05 s⁻¹
Kd [16]: 0.0268 nM
koff [16]: 0.000159 s⁻¹
kon [16]: 5.94e+06 M⁻¹ s⁻¹

B10: ALK4-Fc:ActRIIB-Fc heterodimer (Fc fusion)
chain 1: B8 chain with V226A, E252K, D295K
chain 2: SGPRGVQALLCACTSCLQANYTCETDGACMVSIFNLDGMEHHVRTCIPKVELVPAGKPFYCLSSEDLRNTHCCYTDYCNRIDLRVPSGHLKEPEHPSMWGPVETGGGTHTCPPCPAPELLGGPSVFLFPPKPKDTLMISRTPEVTCVVVDVSHEDPEVKFNWYVDGVEVHNAKTKPREEQYNSTYRVVSVLTVLHQDWLNGKEYKCKVSNKALPAPIEKTISKAKGQPREPQVYTLPPSREEMTKNQVSLTCLVKGFYPSDIAVEWESNGQPENNYDTTPPVLDSDGSFFLYSDLTVDKSRWQQGNVFSCSVMHEALHNHYTQKSLSLSPG
notes: The receptor parts are the same in all three; also called ALK4-Fc:ActRIIB-Fc heterodimeric complex; ALK4:ActRIIB heterodimer
Kd [6]: 0.003 nM
koff [6]: 0.00011 s⁻¹
kon [6]: 3.8e+07 M⁻¹ s⁻¹
Kd [7]: 2.7 nM
koff [7]: 0.0055 s⁻¹
kon [7]: 2e+06 M⁻¹ s⁻¹
Kd [8]: 0.006 nM
koff [8]: 4e-05 s⁻¹
kon [8]: 7.1e+06 M⁻¹ s⁻¹
Kd [9]: 0.074 nM
koff [9]: 0.0041 s⁻¹
kon [9]: 5.6e+07 M⁻¹ s⁻¹
Kd [10]: 3.4 nM
Kd [11]: 4.9 nM
koff [11]: 0.017 s⁻¹
kon [11]: 3.4e+06 M⁻¹ s⁻¹
Kd [12]: 0.55 nM
koff [12]: 0.00021 s⁻¹
kon [12]: 390000 M⁻¹ s⁻¹
Kd [13]: 0.012 nM
koff [13]: 0.00015 s⁻¹
kon [13]: 1.3e+07 M⁻¹ s⁻¹

B11: ActRIIB(L79D 20-134)-hFc (Fc fusion)
chain: B8 chain with L60D
Kd [14]: 0.655 nM
koff [14]: 0.000439 s⁻¹
Kd [15]: 2.15 nM
koff [15]: 0.00083 s⁻¹

B12: ActRIIB(A24N 20-134)-hFc (Fc fusion)
chain: B8 chain with A5N
Kd [14]: 0.0519 nM
koff [14]: 6.35e-05 s⁻¹
Kd [16]: 0.104 nM
koff [16]: 0.000346 s⁻¹
kon [16]: 3.34e+06 M⁻¹ s⁻¹

B13: ActRIIB(R64K 20-134)-hFc (Fc fusion)
chain: B8 chain with R45K
Kd [14]: 0.0356 nM
koff [14]: 2.41e-05 s⁻¹
Kd [15]: 0.21 nM
koff [15]: 4.71e-05 s⁻¹
Kd [16]: 0.0476 nM
koff [16]: 0.000325 s⁻¹
kon [16]: 6.82e+06 M⁻¹ s⁻¹

B14: ActRIIB(L79E 20-134)-hFc (Fc fusion)
chain: B8 chain with L60E
Kd [14]: 0.716 nM
koff [14]: 0.000274 s⁻¹
Kd [15]: 2.41 nM
koff [15]: 0.0009 s⁻¹

Now from value to binder:

binding result [1]: no binding
binding result [2]: binds
B1: Soluble ActRIIB-Fc D54A (Table 11) (Fc fusion, UniProt Q13705 19-119, looked up, not shown: a dimerising Fc or GST)
chain: SGRGEAETRECIYYNANWELERTNQSGLERCEGEQAKRLHCYASWANSSGTIELVKKGCWLDDFNCYDRQECVATEENPQVYFCCCEGNFCNERFTHLPEA

binding result [3]: no binding
binding relative to WT [4]: < 0.2 fold
B2: Soluble ActRIIB-Fc K74Y (Table 11) (Fc fusion, UniProt Q13705 19-119, looked up, not shown: a dimerising Fc or GST)
chain: B1 chain with A36D, K56Y

binding result [5]: binds
B3: Soluble ActRIIB-Fc F82A (Table 11) (Fc fusion, UniProt Q13705 19-119, looked up, not shown: a dimerising Fc or GST)
chain: B1 chain with A36D, F64A

binding result [3]: no binding
binding relative to WT [4]: < 0.2 fold
B4: Soluble ActRIIB-Fc K74F (Table 11) (Fc fusion, UniProt Q13705 19-119, looked up, not shown: a dimerising Fc or GST)
chain: B1 chain with A36D, K56F

binding result [3]: no binding
binding relative to WT [4]: < 0.2 fold
B5: Soluble ActRIIB-Fc D80I (Table 11) (Fc fusion, UniProt Q13705 19-119, looked up, not shown: a dimerising Fc or GST)
chain: B1 chain with A36D, D62I

binding result [5]: binds
binding result [2]: binds
B6: Soluble ActRIIB-Fc R40A (Table 11) (Fc fusion, UniProt Q13705 19-119, looked up, not shown: a dimerising Fc or GST)
chain: B1 chain with R22A, A36D

binding result [3]: no binding
binding relative to WT [4]: < 0.2 fold
B7: Soluble ActRIIB-Fc K74I (Table 11) (Fc fusion, UniProt Q13705 19-119, looked up, not shown: a dimerising Fc or GST)
chain: B1 chain with A36D, K56I
